Experimental findings from doi:10.1101/2021.10.26.465098 are described below.

For the experiment, the target named is HAdV-C5, -D26 and -B35. Description: SPR.

With “human neutrophil protein 1 (HNP-1) (from UniProt P59665 65-94) (peptide)”, the Kd lay in the range of 37 to 76 nM.
